B1: EEHEE_rd4_0763 (parent)
chain: LTVHVGNVTYHFDNPEQAEEWAKRMAKKYQGQIHVKDGQFRIE

Here are results for 50 variants from the MegaScale stability set (Tsuboyama et al. 2023).

In this series the parent is B1. As to the kind of experiment: folding stability dG (cDNA display proteolysis); higher = more stable. The note with it: PBS, room temperature.
With LTVHVGNVTYHFDNPEQAEEWAKRMAKKYQGQIHVHDGQFRIE [K36H], the “folding stability dG” value came out at 1.75 kcal/mol.

On to LTVHVGNVTYHFDNPEQAEEWAKRMAKKYQGQIHVRDGQFRIE [K36R], for which the “folding stability dG” value was 1.51 kcal/mol.

On to LTVHVGNMTYHFDNPEQAEEWAKRMAKKYQGQIHVKDGQFRIE [V8M], for which the “folding stability dG” value was 1.69 kcal/mol. On to LTVHVGNLTYHFDNPEQAEEWAKRMAKKYQGQIHVKDGQFRIE [V8L], for which the “folding stability dG” value was 1.66 kcal/mol. For LTVHVGNVTYHFDNPEQAEEWAKRMAEKYQGQIHVKDGQFRIE [K27E], the “folding stability dG” value was 1.67 kcal/mol. Turning to LTVHVGNVTYHFENPEQAEEWAKRMAKKYQGQIHVKDGQFRIE [D13E], the “folding stability dG” value was 1.6 kcal/mol. As for LTVHVGNVTYHFDNPEQAEEWAKRMAKKYQGQIHVKDGRFRIE [Q39R], the “folding stability dG” value stood at 1.09 kcal/mol. For LTVHVGNVTYHFDNPEQAEEWAKRMAKKYQGQWHVKDGQFRIE [I33W], the “folding stability dG” value amounted to 1.34 kcal/mol. LTVHVGNVTYHFDNPEQAEEWAKRMAKKTQGQIHVKDGQFRIE [Y29T]: the “folding stability dG” value was 1.12 kcal/mol. For LTVHVGNVTYHFDNPEQAEEWAKRMAKKPQGQIHVKDGQFRIE [Y29P], the “folding stability dG” value is 0.306 kcal/mol. LTVHVGNVTYHFDNPEHAEEWAKRMAKKYQGQIHVKDGQFRIE [Q17H]: the “folding stability dG” value was 1.54 kcal/mol.

Take LTVHVGNVTYHFDNPEQCEEWAKRMAKKYQGQIHVKDGQFRIE [A18C]: the “folding stability dG” value came to 1.54 kcal/mol. Consider LTVHVGNVTYHHDNPEQAEEWAKRMAKKYQGQIHVKDGQFRIE [F12H], for which the “folding stability dG” value was 0 kcal/mol. LTVHVGNVTYHRDNPEQAEEWAKRMAKKYQGQIHVKDGQFRIE [F12R]: the “folding stability dG” value was -0.481 kcal/mol. For LTVHVGNVTYHFDNPEQAEEWAKRMAKKYQGGIHVKDGQFRIE [Q32G], the “folding stability dG” value worked out at 1.01 kcal/mol. On to LTVHVGSVTYHFDNPEQAEEWAKRMAKKYQGQIHVKDGQFRIE [N7S], for which the “folding stability dG” value amounted to 1.7 kcal/mol. The figure for LTSHVGNVTYHFDNPEQAEEWAKRMAKKYQGQIHVKDGQFRIE [V3S] is 0.339 kcal/mol. Consider LTWHVGNVTYHFDNPEQAEEWAKRMAKKYQGQIHVKDGQFRIE [V3W], for which the “folding stability dG” value turned out to be 0.755 kcal/mol. The figure for LTQHVGNVTYHFDNPEQAEEWAKRMAKKYQGQIHVKDGQFRIE [V3Q] is 0.344 kcal/mol; for LTVHVGNVTYHFDNPEQAEEWAKRMAKKYQGQIHVKDGQFSIE [R41S] it is 1.57 kcal/mol.

Regarding LTVHVGNVTYHFDNPEQAEEWAKRMAKKYQGQIHVKDGQWRIE [F40W], the “folding stability dG” value amounted to 1.88 kcal/mol. Consider LTVHVGNVTYHFDNPEQAEEWAKRMAKKYQGQIHVKDGQPRIE [F40P], for which the “folding stability dG” value is 1.01 kcal/mol. The figure for LTVHVGNVTYHFDTPEQAEEWAKRMAKKYQGQIHVKDGQFRIE [N14T] is 1.76 kcal/mol; for LTVHVGNVTYHFDAPEQAEEWAKRMAKKYQGQIHVKDGQFRIE [N14A] it is 1.42 kcal/mol. Turning to LTVHVGNVTYHFDRPEQAEEWAKRMAKKYQGQIHVKDGQFRIE [N14R], the “folding stability dG” value was 1.45 kcal/mol. On to LTVHVGNVTYHFDVPEQAEEWAKRMAKKYQGQIHVKDGQFRIE [N14V], for which the “folding stability dG” value came to 1.39 kcal/mol.

With LTVHVGNVTYHFDNPEQAEGWAKRMAKKYQGQIHVKDGQFRIE [E20G], the “folding stability dG” value turned out to be 1.18 kcal/mol. LTVHVGNVTYHFDNPEQAEDWAKRMAKKYQGQIHVKDGQFRIE [E20D]: the “folding stability dG” value stood at 1.54 kcal/mol. Turning to LTVHVGNVTYHFDNPEQAEPWAKRMAKKYQGQIHVKDGQFRIE [E20P], the “folding stability dG” value is -0.521 kcal/mol. Under LTVHVGNVTYHFDNPEQAEEWAKRMQKKYQGQIHVKDGQFRIE [A26Q] stands 0.967 kcal/mol; under LTVHVGNVTYHFDNPEQAEEWAKRMGKKYQGQIHVKDGQFRIE [A26G], 0.842 kcal/mol; under LTVHFGNVTYHFDNPEQAEEWAKRMAKKYQGQIHVKDGQFRIE [V5F], 1.74 kcal/mol. The figure for LTVHMGNVTYHFDNPEQAEEWAKRMAKKYQGQIHVKDGQFRIE [V5M] is 1.48 kcal/mol. Regarding LTVHYGNVTYHFDNPEQAEEWAKRMAKKYQGQIHVKDGQFRIE [V5Y], the “folding stability dG” value was 1.41 kcal/mol.

Take LTVHVGNVQYHFDNPEQAEEWAKRMAKKYQGQIHVKDGQFRIE [T9Q]: the “folding stability dG” value was found to be 1.29 kcal/mol. Consider LTVHVQNVTYHFDNPEQAEEWAKRMAKKYQGQIHVKDGQFRIE [G6Q], for which the “folding stability dG” value is 1.18 kcal/mol. With LTVHVGNVTYHFDNPEQAEEWAKTMAKKYQGQIHVKDGQFRIE [R24T], the “folding stability dG” value was found to be 1.45 kcal/mol. Consider LTVHVGNVTYHFDNPEQAEEWAKDMAKKYQGQIHVKDGQFRIE [R24D], for which the “folding stability dG” value turned out to be 0.976 kcal/mol. For LTVHVGNVTGHFDNPEQAEEWAKRMAKKYQGQIHVKDGQFRIE [Y10G], the “folding stability dG” value came to 0.153 kcal/mol.

With LTVHVGNVTYHFDNPEQAEEWAKRMAKKYQGQIHVKDGQFRIM [E43M], the “folding stability dG” value worked out at 1.5 kcal/mol.

Turning to LTVHVGNVTYHFDNPEQAEEWAKRMAKKYQGQIHVKDGQFRIV [E43V], the “folding stability dG” value was 1.99 kcal/mol. In the case of LTVHVGNVTYHFDNPEQAEEWAKRMAKKYQGQIHVKDGQFRIY [E43Y], the “folding stability dG” value is 1.71 kcal/mol. In the case of NTVHVGNVTYHFDNPEQAEEWAKRMAKKYQGQIHVKDGQFRIE [L1N], the “folding stability dG” value is 2.06 kcal/mol.

As to GTVHVGNVTYHFDNPEQAEEWAKRMAKKYQGQIHVKDGQFRIE [L1G], the “folding stability dG” value was found to be 1.77 kcal/mol. With LTVHVGNVTYHFDNPEQAEEWAKRMAKKYQGQIVVKDGQFRIE [H34V], the “folding stability dG” value was 2.26 kcal/mol. For LTVHVGNVTYHFDNPEQAEEWAKRMAKKYQGQILVKDGQFRIE [H34L], the “folding stability dG” value was 1.75 kcal/mol. Regarding LTVHVGNVTYHFDNPEQAEEWAKRGAKKYQGQIHVKDGQFRIE [M25G], the “folding stability dG” value is 0 kcal/mol. With LTVHVGNVTYHFDNPEQAEEWAKREAKKYQGQIHVKDGQFRIE [M25E], the “folding stability dG” value stood at 0.535 kcal/mol. Turning to LTVHVGNVTYHFDNPEQAEEWAKRDAKKYQGQIHVKDGQFRIE [M25D], the “folding stability dG” value was -0.162 kcal/mol.

Consider LTVHVGNVTYFFDNPEQAEEWAKRMAKKYQGQIHVKDGQFRIE [H11F], for which the “folding stability dG” value is 1.75 kcal/mol.
